From paper PMC7946914, “easyCLIP analysis of RNA-protein interactions incorporating absolute quantification”
Residue numbers refer to the chain shown, from its start.

Experiments:
Experiment in all cases: fluorescence polarization; FP with 3' 6-FAM RNA; PCBP1 RNA diluted to 50 nM in PCBP binding buffer; buffer composition, pH and temperature not in the material
A1CF WT = biological target: T1, A1CF WT (human?, UniProt Q9NQ94 1-594); settings: protein: recombinant; label: 3' 6-FAM; single-stranded
T1 sequence: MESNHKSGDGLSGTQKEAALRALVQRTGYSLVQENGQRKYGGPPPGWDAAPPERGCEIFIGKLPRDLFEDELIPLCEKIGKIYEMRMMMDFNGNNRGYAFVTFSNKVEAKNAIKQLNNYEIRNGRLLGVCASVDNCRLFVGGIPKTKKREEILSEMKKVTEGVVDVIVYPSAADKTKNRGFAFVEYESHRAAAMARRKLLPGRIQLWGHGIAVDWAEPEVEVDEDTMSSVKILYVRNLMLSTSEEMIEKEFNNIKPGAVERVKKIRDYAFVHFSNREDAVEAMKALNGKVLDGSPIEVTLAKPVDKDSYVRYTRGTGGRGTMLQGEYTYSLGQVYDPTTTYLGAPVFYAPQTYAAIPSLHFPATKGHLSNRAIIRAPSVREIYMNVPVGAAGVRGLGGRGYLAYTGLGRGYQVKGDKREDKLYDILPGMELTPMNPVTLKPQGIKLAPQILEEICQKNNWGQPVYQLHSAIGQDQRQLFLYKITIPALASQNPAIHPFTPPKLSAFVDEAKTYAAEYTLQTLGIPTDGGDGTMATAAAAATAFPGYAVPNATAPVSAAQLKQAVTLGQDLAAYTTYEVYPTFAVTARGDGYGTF

A1CF E34K = biological target: T2, A1CF E34K (human?, UniProt Q9NQ94 1-594, E34K); settings: protein: recombinant; label: 3' 6-FAM; single-stranded
T2 sequence: T1 sequence with E34K

KHDRBS2 R168C = biological target: T3, KHDRBS2 R168C (UniProt Q5VWX1 1-349, R168C); settings: protein: recombinant; chain copies: 2; label: 3' 6-FAM; single-stranded
T3 sequence: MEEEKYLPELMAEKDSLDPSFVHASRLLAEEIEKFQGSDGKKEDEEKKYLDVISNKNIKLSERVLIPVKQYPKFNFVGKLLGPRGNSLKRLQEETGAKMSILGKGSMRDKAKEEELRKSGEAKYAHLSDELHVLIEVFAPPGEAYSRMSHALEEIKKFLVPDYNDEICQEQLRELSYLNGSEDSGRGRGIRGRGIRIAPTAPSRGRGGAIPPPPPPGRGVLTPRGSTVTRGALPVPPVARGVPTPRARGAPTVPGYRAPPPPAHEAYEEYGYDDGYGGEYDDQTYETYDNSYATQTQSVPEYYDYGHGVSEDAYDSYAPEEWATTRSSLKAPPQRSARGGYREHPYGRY

KHDRBS2 WT = biological target: T4, KHDRBS2 WT (UniProt Q5VWX1 1-349); settings: protein: recombinant; chain copies: 2; label: 3' 6-FAM; single-stranded
T4 sequence: T3 sequence with C168R

AUUAAAUUAAAUUU (ssRNA) [AU-rich RNA (A1CF and KHDRBS2)]
binding signal (A1CF WT): 1 fold (reference) | binding signal (A1CF E34K): ~2 fold affinity vs WT | binding signal (KHDRBS2 R168C): ~2 fold affinity vs WT | binding signal (KHDRBS2 WT): 1 fold (reference)
